This passage reports stoichiometry N and Kd results from paper doi:10.1101/2020.04.14.041046.

The test addresses actin filaments (rabbit skeletal muscle actin) (rabbit) (UniProt P68135). In words: co-sedimentation.

What is called stoichiometry N is the number of molecules, sites or subunits per partner or assembly. Usually Kd stands for the free concentration of one partner at which half of the binding sites on the other are occupied at equilibrium, for simple one-to-one binding.

As to “Rng2CHD fused with GFP to its N-terminus via a 16-residue linker (GFP-Rng2CHD) (domain or fragment)”, the stoichiometry N was 1.

Substance “calponin-homology actin binding domain of fission yeast IQGAP Rng2 (Rng2CHD) (domain or fragment)” came in with a Kd of 0.92 µM.
